Assay results taken from IntAct's records for PubMed 17141806.

B1: Disintegrin and metalloproteinase domain-containing protein 22 (Homo sapiens), Q9P0K1-1 (parent)
chain: MQAAVAVSVPFLLLCVLGTCPPARCGQAGDASLMELEKRKENRFVERQSIVPLRLIYRSGGEDESRHDALDTRVRGDLGGPQLTHVDQASFQVDAFGTSFILDVVLNHDLLSSEYIERHIEHGGKTVEVKGGEHCYYQGHIRGNPDSFVALSTCHGLHGMFYDGNHTYLIEPEENDTTQEDFHFHSVYKSRLFEFSLDDLPSEFQQVNITPSKFILKPRPKRSKRQLRRYPRNVEEETKYIELMIVNDHLMFKKHRLSVVHTNTYAKSVVNMADLIYKDQLKTRIVLVAMETWATDNKFAISENPLITLREFMKYRRDFIKEKSDAVHLFSGSQFESSRSGAAYIGGICSLLKGGGVNEFGKTDLMAVTLAQSLAHNIGIISDKRKLASGECKCEDTWSGCIMGDTGYYLPKKFTQCNIEEYHDFLNSGGGACLFNKPSKLLDPPECGNGFIETGEECDCGTPAECVLEGAECCKKCTLTQDSQCSDGLCCKKCKFQPMGTVCREAVNDCDIRETCSGNSSQCAPNIHKMDGYSCDGVQGICFGGRCKTRDRQCKYIWGQKVTASDKYCYEKLNIEGTEKGNCGKDKDTWIQCNKRDVLCGYLLCTNIGNIPRLGELDGEITSTLVVQQGRTLNCSGGHVKLEEDVDLGYVEDGTPCGPQMMCLEHRCLPVASFNFSTCLSSKEGTICSGNGVCSNELKCVCNRHWIGSDCNTYFPHNDDAKTGITLSGNGVAGTNIIIGIIAGTILVLALILGITAWGYKNYREQRQLPQGDYVKKPGDGDSFYSDIPPGVSTNSASSSKKRSNGLSHSWSERIPDTKHISDICENGRPRSNSWQGNLGGNKKKIRGKRFRPRSNSTETLSPAKSPSSSTGSIASSRKYPYPMPPLPDEDKKVNRQSARLWETSI

Variants of: B1
Settings: with hck_human HCK

Variant	effect of a mutation on the interaction
Y882A	decreasing interaction
